# Source: patent US20250320281A1
# Legend:
# [1] = target: HIV-1 Env of isolate 92UG037 (subtype A) (HIV-1); experiment: cell-based or functional assay
# [2] = target: HIV-1 Env of isolate 92WR020 (subtype A) (HIV-1); experiment: cell-based or functional assay
# [3] = target: HIV-1 Env of isolate 92WR021 (subtype A) (HIV-1); experiment: cell-based or functional assay
# [4] = target: HIV-1 Env of isolate 92WR024 (subtype A) (HIV-1); experiment: cell-based or functional assay
# [5] = target: HIV-1 Env of isolate 92WR026 (subtype A) (HIV-1); experiment: cell-based or functional assay
# [6] = target: HIV-1 Env of isolate 93UG077 (subtype A) (HIV-1); experiment: cell-based or functional assay
# [7] = target: HIV-1 Env of isolate 93WR029 (subtype A) (HIV-1); experiment: cell-based or functional assay
# [8] = target: HIV-1 Env of isolate 94 KE 105 (subtype AC) (HIV-1); experiment: cell-based or functional assay
# [9] = target: HIV-1 Env of isolate 94UG103 (subtype A) (HIV-1); experiment: cell-based or functional assay
# [10] = target: HIV-1 envelope glycoprotein (Env) of isolate 6535.3 (HIV-1); experiment: cell-based or functional assay
# [11] = target: HIV-1 envelope glycoprotein (Env) of isolate 92BR020 (HIV-1); experiment: cell-based or functional assay
# [12] = target: HIV-1 envelope glycoprotein (Env) of isolate 93TH305 (HIV-1); experiment: cell-based or functional assay
# [13] = target: HIV-1 envelope glycoprotein (Env) of isolate APV_13 (HIV-1); experiment: cell-based or functional assay
# [14] = target: HIV-1 envelope glycoprotein (Env) of isolate APV_17 (HIV-1); experiment: cell-based or functional assay
# [15] = target: HIV-1 envelope glycoprotein (Env) of isolate APV_6 (HIV-1); experiment: cell-based or functional assay
# [16] = target: HIV-1 envelope glycoprotein (Env) of isolate MGRM-Chronic-B-001 (HIV-1); experiment: cell-based or functional assay
# [17] = target: HIV-1 envelope glycoprotein (Env) of isolate MGRM-Chronic-B-002 (HIV-1); experiment: cell-based or functional assay
# [18] = target: HIV-1 envelope glycoprotein (Env) of isolate MGRM-Chronic-B-004 (HIV-1); experiment: cell-based or functional assay
# [19] = target: HIV-1 Env of isolate 92UG024 (HIV-1); experiment: cell-based or functional assay
# [20] = target: HIV-1 Env of isolate MGRM-AE-007 (subtype AE) (HIV-1); experiment: cell-based or functional assay
# [21] = target: JR-FL gp120 ΔV1/ΔV2 (HIV-1); experiment: ELISA, antigen-coated wells
# [22] = target: HIV-1 Env of isolate MGRM-F1-018 (HIV-1); experiment: cell-based or functional assay
# [23] = target: HIV-1 Env of isolate MGRM-Chronic-B-003, clade B, on pseudovirus (HIV-1); experiment: cell-based or functional assay
# [24] = target: HIV-1 Env of pseudovirus MGRM-Chronic-B-017 (HIV-1); experiment: cell-based or functional assay
# [25] = target: HIV-1 Env of pseudovirus MGRM-F1-013 (HIV-1); experiment: cell-based or functional assay
# [26] = target: HIV-1 Env of pseudovirus MGRM-F1-020 (HIV-1); experiment: cell-based or functional assay
# [27] = target: HIV-1 envelope glycoprotein (Env) of isolate MGRM-A-003, clade A (HIV-1); experiment: cell-based or functional assay
# [28] = target: HIV-1 92TH021 Env on pseudotyped virus (HIV-1 isolate 92TH021); experiment: cell-based or functional assay
# [29] = target: HIV-1 93IN905 Env on pseudotyped virus (HIV-1 isolate 93IN905); experiment: cell-based or functional assay
# [30] = target: HIV-1 94UG103 Env on pseudotyped virus (HIV-1 isolate 94UG103); experiment: cell-based or functional assay
# [31] = target: HIV-1 Env of pseudovirus 92TH021 (clade CRF01_AE) (HIV-1); experiment: cell-based or functional assay
# [32] = target: HIV-1 JR-CSF Env on pseudotyped virus (HIV-1 isolate JR-CSF) (UniProt P20871); experiment: cell-based or functional assay
# [33] = target: HIV-1 NL43 Env on pseudotyped virus (HIV-1 NL43); experiment: cell-based or functional assay
# 4980_N08 (PGT-143) (antibody), sequence (VH): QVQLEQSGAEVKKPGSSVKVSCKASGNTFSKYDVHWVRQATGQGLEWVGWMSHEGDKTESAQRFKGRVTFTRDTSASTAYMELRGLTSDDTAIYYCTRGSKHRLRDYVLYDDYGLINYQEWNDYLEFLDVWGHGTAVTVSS
# 4980_N08 (PGT-143) (antibody), sequence (VL): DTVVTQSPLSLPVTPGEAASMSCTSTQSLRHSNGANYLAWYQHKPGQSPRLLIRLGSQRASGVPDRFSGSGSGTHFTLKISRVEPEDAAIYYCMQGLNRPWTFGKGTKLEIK
# 4970_K22 (PGT-144) (antibody), sequence (VH): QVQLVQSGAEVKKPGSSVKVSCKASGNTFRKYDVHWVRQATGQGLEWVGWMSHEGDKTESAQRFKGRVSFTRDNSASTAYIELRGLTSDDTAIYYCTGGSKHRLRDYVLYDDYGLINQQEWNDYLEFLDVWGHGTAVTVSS
# 4970_K22 (PGT-144) (antibody), sequence (VL): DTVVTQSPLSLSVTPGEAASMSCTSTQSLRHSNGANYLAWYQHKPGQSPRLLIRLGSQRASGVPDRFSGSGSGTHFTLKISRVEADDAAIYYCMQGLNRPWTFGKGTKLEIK
# 4995_E20 (PGT-142) (antibody), sequence (VH): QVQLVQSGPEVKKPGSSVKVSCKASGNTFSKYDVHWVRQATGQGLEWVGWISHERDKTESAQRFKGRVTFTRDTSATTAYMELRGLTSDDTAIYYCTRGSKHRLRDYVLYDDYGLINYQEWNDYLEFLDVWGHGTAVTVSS
# 4995_E20 (PGT-142) (antibody), sequence (VL): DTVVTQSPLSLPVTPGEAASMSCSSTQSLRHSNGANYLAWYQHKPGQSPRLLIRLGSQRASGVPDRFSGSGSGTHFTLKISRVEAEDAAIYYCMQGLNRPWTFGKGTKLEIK
Substance,"IC50 (µg/mL), pseudovirus neutralization [1] [µg/mL]","IC50 (µg/mL), pseudovirus neutralization [2] [µg/mL]","IC50 (µg/mL), pseudovirus neutralization [3] [µg/mL]","IC50 (µg/mL), pseudovirus neutralization [4] [µg/mL]","IC50 (µg/mL), pseudovirus neutralization [5] [µg/mL]","IC50 (µg/mL), pseudovirus neutralization [6] [µg/mL]","IC50 (µg/mL), pseudovirus neutralization [7] [µg/mL]","IC50 (µg/mL), pseudovirus neutralization [8] [µg/mL]","IC50 (µg/mL), pseudovirus neutralization [9] [µg/mL]","IC50 (µg/mL), pseudovirus neutralization [10] [µg/mL]","IC50 (µg/mL), pseudovirus neutralization [11] [µg/mL]","IC50 (µg/mL), pseudovirus neutralization [12] [µg/mL]","IC50 (µg/mL), pseudovirus neutralization [13] [µg/mL]","IC50 (µg/mL), pseudovirus neutralization [14] [µg/mL]","IC50 (µg/mL), pseudovirus neutralization [15] [µg/mL]","IC50 (µg/mL), pseudovirus neutralization [16] [µg/mL]","IC50 (µg/mL), pseudovirus neutralization [17] [µg/mL]","IC50 (µg/mL), pseudovirus neutralization [18] [µg/mL]","IC50 (µg/ml), pseudovirus neutralization [24] [µg/mL]","IC50 (µg/ml), pseudovirus neutralization [25] [µg/mL]",also measured
4980_N08 (PGT-143) (antibody),0.854,> 50,> 50,0.122,5.36,> 50,0.053,0.368,> 50,> 50,25.9,17.3,> 50,1.11,14,> 50,> 50,0.395,,,
4995_E20 (PGT-142) (antibody),0.557,31.5,> 50,0.069,1.78,> 50,0.014,0.19,> 50,> 50,15.1,5.86,> 50,0.628,4.72,> 50,> 50,0.172,,,
5114_A19 (PGT-128) (antibody),,,,,,,,,,,,,,,,,,,,,"IC50 (µg/mL), pseudovirus neutralization [19]: > 50 µg/mL; IC50 (µg/mL), pseudovirus neutralization [20]: > 50 µg/mL; EC50 [21]: 0.3 µg/mL"
VRC01 (antibody),0.245,0.13,0.066,0.327,,0.097,1.57,0.499,0.285,1.75,0.29,0.243,0.657,0.477,1.81,0.066,0.117,0.055,,,IC50 [22]: 0.032 µg/mL
b12 (antibody),,,,,,,,,,,,,,,,,,,2.59,> 50,"IC50 (µg/ml), pseudovirus neutralization [23]: > 50 µg/mL; IC50 (µg/ml), pseudovirus neutralization [26]: > 50 µg/mL; IC50 (µg/ml), pseudovirus neutralization [27]: > 50 µg/mL"
1495_C14 (PGC14) (antibody),,,,,,,,,,,,,,,,,,,> 50,6,"Neutralizing Antibody Assay: IC50; Virus/Ab Incubation 1 hour [28]: > 50 µg/mL; Neutralizing Antibody Assay: IC50; Virus/Ab Incubation 18 hour [28]: > 50 µg/mL; Neutralizing Antibody Assay: IC50; Virus/Ab Incubation 1 hour [29]: > 50 µg/mL; Neutralizing Antibody Assay: IC50; Virus/Ab Incubation 18 hour [29]: 0.146 µg/mL; Neutralizing Antibody Assay: IC50; Virus/Ab Incubation 1 hour [30]: > 50 µg/mL; Neutralizing Antibody Assay: IC50; Virus/Ab Incubation 18 hour [30]: > 50 µg/mL; IC50 (µg/ml), pseudovirus neutralization [23]: > 50 µg/mL; IC50 [31]: > 50 µg/mL; IC50 (µg/ml), pseudovirus neutralization [26]: > 50 µg/mL; Neutralizing Antibody Assay: IC50; Virus/Ab Incubation 1 hour [32]: > 50 µg/mL; Neutralizing Antibody Assay: IC50; Virus/Ab Incubation 18 hour [32]: > 50 µg/mL; Neutralizing Antibody Assay: IC50; Virus/Ab Incubation 1 hour [33]: 0.35 µg/mL; Neutralizing Antibody Assay: IC50; Virus/Ab Incubation 18 hour [33]: 0.15 µg/mL; IC50 (µg/ml), pseudovirus neutralization [27]: > 50 µg/mL"
4970_K22 (PGT-144) (antibody),8.24,> 50,> 50,16.3,32.7,> 50,4.39,0.29,> 50,> 50,44,> 50,> 50,10.3,> 50,> 50,> 50,9.41,,,
1496_C09 (PG9) (TCN-109) (antibody),,,,,,,,,,,,,,,,,,,0.32,0.56,"Neutralizing Antibody Assay: IC50; Virus/Ab Incubation 1 hour [28]: 0.0612 µg/mL; Neutralizing Antibody Assay: IC50; Virus/Ab Incubation 18 hour [28]: 0.0571 µg/mL; Neutralizing Antibody Assay: IC50; Virus/Ab Incubation 1 hour [29]: 0.144 µg/mL; Neutralizing Antibody Assay: IC50; Virus/Ab Incubation 18 hour [29]: 0.0619 µg/mL; Neutralizing Antibody Assay: IC50; Virus/Ab Incubation 1 hour [30]: 0.334 µg/mL; Neutralizing Antibody Assay: IC50; Virus/Ab Incubation 18 hour [30]: 0.0942 µg/mL; IC50 [31]: 0.09 µg/mL; IC50 (µg/ml), pseudovirus neutralization [26]: 4.55 µg/mL; Neutralizing Antibody Assay: IC50; Virus/Ab Incubation 1 hour [32]: < 0.0025 µg/mL; Neutralizing Antibody Assay: IC50; Virus/Ab Incubation 18 hour [32]: < 0.0025 µg/mL; Neutralizing Antibody Assay: IC50; Virus/Ab Incubation 1 hour [33]: 0.294 µg/mL; Neutralizing Antibody Assay: IC50; Virus/Ab Incubation 18 hour [33]: 38 µg/mL; IC50 (µg/ml), pseudovirus neutralization [27]: 0.65 µg/mL"
